Target: T1, OB-RY1141F (Homo sapiens, UniProt P48357, Y1141F)
T1 construct: cells transfected with the full-length OB-R constructs; expressed in transfected cells; host or cells: COS-7
T1 sequence (P48357 22-1165 Y1141F): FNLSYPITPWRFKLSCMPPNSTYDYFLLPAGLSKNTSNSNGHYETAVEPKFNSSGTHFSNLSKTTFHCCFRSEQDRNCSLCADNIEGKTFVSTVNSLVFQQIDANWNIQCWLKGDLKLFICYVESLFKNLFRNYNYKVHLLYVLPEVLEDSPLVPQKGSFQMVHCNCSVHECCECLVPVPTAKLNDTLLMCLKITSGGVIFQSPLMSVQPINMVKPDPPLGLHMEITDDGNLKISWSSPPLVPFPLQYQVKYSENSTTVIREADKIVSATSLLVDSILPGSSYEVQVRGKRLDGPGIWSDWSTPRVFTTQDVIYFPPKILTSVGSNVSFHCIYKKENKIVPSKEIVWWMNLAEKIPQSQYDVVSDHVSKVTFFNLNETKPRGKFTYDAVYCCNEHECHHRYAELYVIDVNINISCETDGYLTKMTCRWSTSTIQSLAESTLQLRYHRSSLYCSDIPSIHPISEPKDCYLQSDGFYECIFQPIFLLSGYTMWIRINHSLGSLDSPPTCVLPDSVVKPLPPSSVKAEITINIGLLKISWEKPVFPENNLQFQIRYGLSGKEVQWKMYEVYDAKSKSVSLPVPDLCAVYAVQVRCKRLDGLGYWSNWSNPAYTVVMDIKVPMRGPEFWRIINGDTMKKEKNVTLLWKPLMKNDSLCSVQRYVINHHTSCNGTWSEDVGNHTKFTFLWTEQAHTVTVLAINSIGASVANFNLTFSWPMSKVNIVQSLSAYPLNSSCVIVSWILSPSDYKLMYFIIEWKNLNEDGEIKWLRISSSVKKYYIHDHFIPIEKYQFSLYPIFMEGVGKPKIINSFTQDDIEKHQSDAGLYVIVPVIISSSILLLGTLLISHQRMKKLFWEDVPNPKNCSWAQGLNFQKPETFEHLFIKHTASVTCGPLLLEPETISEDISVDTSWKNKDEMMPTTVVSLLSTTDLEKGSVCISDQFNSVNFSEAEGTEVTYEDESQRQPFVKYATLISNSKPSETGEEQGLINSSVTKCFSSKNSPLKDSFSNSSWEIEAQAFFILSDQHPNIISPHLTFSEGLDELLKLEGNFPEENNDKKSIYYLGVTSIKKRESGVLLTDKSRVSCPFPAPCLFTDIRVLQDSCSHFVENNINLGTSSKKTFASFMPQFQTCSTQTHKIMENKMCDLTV
Assay: Luciferase reporter gene assay (3(G3)-Cy6-LUC), leptin stimulation of COS cells expressing mutant OB-RY1141F
Type: cell-based
Details: mutant construct OB-RY1141F, 100 ng/ml leptin for 24 hours
Description: The cytoplasmic domain and full-length human OB-R was cloned by PCR using human fetal liver and adipocyte cDNA (Clontech) and cloned into the expression vectors pCMX and pMT21. Chimeric receptors were constructed by fusing the extracellular domain and transmembrane domain of TrkC (amino acids 1 to 458) to the cytoplasmic domain of OB-R (amino acids 865-1165). A triple myc epitope tag was added at the C-terminus of all OB-R constructs (18). Truncation and point mutant constructs were generated by PCR and the sequences of all constructs were verified. Expression constructs were transfected into COS-7 cells using lipofectamine (GIBCO-BRL); 36-48 hours after transfection, cells were starved for either 2 hour,s for chimeric receptors or overnight for full-length receptors prior to stimulation.
Expression constructs (1 μg) for OB-R, OB-RY1141F, OB-RY986F, OB-RY1078, 1079F, and OB-RY986, 1141F were co-transfected with 1 μg of 3(G3)-Cy6-LUC and 0.1 μg of pCMX.LacZ into COS-7 cells (6-well dishes) using lipofectamine. The day after transfection, media was changed to serum-free OptiMEM (GIBCO-BRL) and then treated with 100 ng/ml murine leptin (PeproTech) or human leptin (R&D Systems) for 24 hours. […] Luciferase and β-galactosidase activities were measured in cell lysates (30) and luciferase activity was normalized to β-galactosidase activity to control for transfection differences. […]

induction of luciferase activity: no induction
Substance: leptin: the product of the obese gene, secreted by adipocytes; ligand of OB-R
